# Data: IntAct's records for PubMed 29039417
# B1: Protein PTHB1 (Homo sapiens), Q3SYG4 (parent)
# chain: MSLFKARDWWSTILGDKEEFDQGCLCLANVDNSGNGQDKIIVGSFMGYLRIFSPHPAKTGDGAQAEDLLLEVDLRDPVLQVEVGKFVSGTEMLHLAVLHSRKLCVYSVSGTLGNVEHGNQCQMKLMYEHNLQRTACNMTYGSFGGVKGRDLICIQSMDGMLMVFEQESYAFGRFLPGFLLPGPLAYSSRTDSFLTVSSCQQVESYKYQVLAFATDADKRQETEQQKLGSGKRLVVDWTLNIGEQALDICIVSFNQSASSVFVLGERNFFCLKDNGQIRFMKKLDWSPSCFLPYCSVSEGTINTLIGNHNNMLHIYQDVTLKWATQLPHIPVAVRVGCLHDLKGVIVTLSDDGHLQCSYLGTDPSLFQAPNVQSRELNYDELDVEMKELQKIIKDVNKSQGVWPMTEREDDLNVSVVVSPNFDSVSQATDVEVGTDLVPSVTVKVTLQNRVILQKAKLSVYVQPPLELTCDQFTFEFMTPDLTRTVSFSVYLKRSYTPSELEGNAVVSYSRPTDRNPDGIPRVIQCKFRLPLKLICLPGQPSKTASHKITIDTNKSPVSLLSLFPGFASQSDDDQVNVMGFHFLGGARITVLASKTSQRYRIQSEQFEDLWLITNELILRLQEYFEKQGVKDFACSFSGSIPLQEYFELIDHHFELRINGEKLEELLSERAVQFRAIQRRLLARFKDKTPAPLQHLDTLLDGTYKQVIALADAVEENQGNLFQSFTRLKSATHLVILLIALWQKLSADQVAILEAAFLPLQEDTQELGWEETVDAAISHLLKTCLSKSSKEQALNLNSQLNIPKDTSQLKKHITLLCDRLSKGGRLCLSTDAAAPQTMVMPGGCTTIPESDLEERSVEQDSTELFTNHRHLTAETPRPEVSPLQGVSE
# partner: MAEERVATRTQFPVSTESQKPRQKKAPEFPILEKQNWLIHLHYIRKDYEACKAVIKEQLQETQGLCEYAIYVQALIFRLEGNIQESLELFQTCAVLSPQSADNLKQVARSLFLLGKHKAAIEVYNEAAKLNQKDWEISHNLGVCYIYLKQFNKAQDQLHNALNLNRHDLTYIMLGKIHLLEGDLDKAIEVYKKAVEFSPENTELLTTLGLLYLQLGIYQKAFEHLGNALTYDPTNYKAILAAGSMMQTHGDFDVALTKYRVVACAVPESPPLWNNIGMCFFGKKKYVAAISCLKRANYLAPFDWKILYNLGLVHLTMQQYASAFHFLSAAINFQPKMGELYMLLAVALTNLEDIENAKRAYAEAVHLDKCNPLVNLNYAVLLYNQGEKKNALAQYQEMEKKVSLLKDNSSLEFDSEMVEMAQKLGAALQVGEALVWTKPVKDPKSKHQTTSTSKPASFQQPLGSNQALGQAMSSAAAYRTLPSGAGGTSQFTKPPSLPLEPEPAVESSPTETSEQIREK
# Variants of: B1
# Conditions: with bbs4_human BBS4, Q96RK4
row,effect of a mutation on the interaction,Variant
1,with no effect,E466K
2,with no effect,E466A
3,with no effect,C469K
4,with no effect,C469E
5,with no effect,C469A
6,with no effect,T468A
7,with no effect,T468K
8,with no effect,T468E
9,with no effect,D470K
10,with no effect,D470E
11,with no effect,D470A
12,with no effect,F472A
13,with no effect,F472K
14,with no effect,F472E
15,disrupting interaction strength,L465E
16,disrupting interaction strength,L465K
17,with no effect,L465A
18,with no effect,T473E

row,effect of a mutation on the interaction,Variant
1,with no effect,T473A
2,with no effect,T473K
3,with no effect,Q462K
4,disrupting interaction strength,Q462T
5,with no effect,P463E
6,with no effect,P463K
7,with no effect,P463A
8,disrupting interaction strength,P463T
9,with no effect,Q471K
10,with no effect,Q471A
11,with no effect,Q471E
12,with no effect,L467K
13,with no effect,L467E
14,with no effect,L467A
15,with no effect,P464K
16,with no effect,P464A
17,with no effect,P464E

# More lines, now with the values behind:
row,Variant,effect of a mutation on the interaction
1,L457K,with no effect
2,L457E,with no effect
3,L457A,with no effect
4,V459A,disrupting interaction strength
5,V459E,with no effect
6,V459K,with no effect
7,V444I,disrupting interaction strength
8,V444E,with no effect
9,V444K,with no effect
10,Y460K,with no effect
11,Y460E,with no effect
12,Y460A,with no effect
13,V461E,with no effect
14,V461A,with no effect
15,V461K,with no effect
16,Q453A,with no effect
17,Q453E,with no effect
18,Q453K,with no effect
19,R449E,with no effect
20,R449A,with no effect
21,R449K,with no effect
22,L446K,with no effect
23,L446A,with no effect
24,L446E,with no effect
25,K454A,with no effect
26,K454E,with no effect
27,N448A,with no effect
28,N448K,with no effect

row,Variant,effect of a mutation on the interaction
1,N448E,with no effect
2,V450A,with no effect
3,V450M,disrupting interaction strength
4,V450K,with no effect
5,V450E,with no effect
6,I451A,with no effect
7,I451E,with no effect
8,I451K,with no effect
9,T445E,with no effect
10,T445A,with no effect
11,T445K,with no effect
12,Q462A,with no effect
13,Q462E,with no effect
14,L452S,disrupting interaction strength
15,L452E,with no effect
16,L452K,with no effect
17,L452A,with no effect
18,K456A,with no effect
19,K456E,with no effect
20,Q447K,with no effect
21,Q447A,with no effect
22,Q447E,with no effect
23,S458E,with no effect
24,S458K,with no effect
25,S458A,with no effect
26,A455E,with no effect
27,A455K,with no effect
